Publication PMC4141198, “The conserved ubiquitin-like protein Hub1 plays a critical role in splicing in human cells” (Journal of Molecular Cell Biology, 2014)

Biological target: T1, 6xHis-tagged human Hub1 (human, UniProt Q9BZL1 1-73)
T1 construct: human Hub1 (UBL5) expressed from pET28a; also called UBL5; purified Hub1; source: E. coli BL21-CodonPlus (DE3)-RIL, purified (Ni-NTA, Superdex 75)
T1 sequence: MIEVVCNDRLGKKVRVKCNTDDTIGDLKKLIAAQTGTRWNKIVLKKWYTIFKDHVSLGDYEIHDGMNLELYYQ
Test: crystal structure; Hub1 mixed with the HIND peptide at a molar ratio of 1:3, complex separated on Superdex 75; crystals at 20°C in 0.1 M Tris/HCl pH 9.0, 0.15 M sodium acetate, 20% PEG 4000; 2.0 Å
Conditions: both partners purified

- binding result: binds
B1: hSnu66 HIND peptide (residues 117-135) (peptide)
peptide: SLSIEETNKLRAKLGLKPL
notes: residues 117-135 of human Snu66 (SART1), the single HIND element; source: synthetic peptide
